Consider 39 variants from the RNAGym collection of RNA variant scans (doi:10.7554/elife.90254).

Sequences and labels used below:
B1: LINE1-full (parent)
chain: UACGUAGGUGGUUUUCCCCUGAUAGUGCUAAGGGGGCCUGGAAGUUUGGACUGGGCAGAGCUCAACACAGCGUGGCAAAGUGGCUGUGGCUAGACUGCCUCUCUGGAUUCCUCGUCACUCAGCAGGGCAUCUCUGAGAGAAAUGCC

In the data set the parent is B1. The data set is described as follows: self-cleavage, relative activity (ratio to wild type); higher = more cleavage; in vitro, sequencing; the parent is a self-cleaving ribozyme.
As to UACGUUGGUGGUUUUCCCCUGAUAGUGCUAAGGGGGCCUGGAAGUUUGGACUGGGCAGAGCUCAACACAGCGUGGCAAAGUGGCUGUGGCUAGACUGCCUCCCUGGAUUCCUCGUCACUCAGCAGGGCAUCUCUGAGAGAAAUGCC [A6U U102C], the self-cleavage is 0.68.

Regarding UACGUAAGUGGUUUUCCCCUGAUAGUGCUAAGGGGGCCUGGAAGUUUGGACUGGGCAGAGCUCAACACAGCGUGGCAAAGUGGCUGUGGCUAGGCUGCCUCUCUGGAUUCCUCGUCACUCAGCAGGGCAUCUCUGAGAGAAAUGCC [G7A A94G], the self-cleavage was 0.14.

As to UACGUAAGUGGUUUUCCCCUGAUAGUGCUAAGGGGGCCUGGAAGUUUGGACUGGGCAGAGCUCAACACAGCGUGGCAAAGUGGCUGUGGCUAGUCUGCCUCUCUGGAUUCCUCGUCACUCAGCAGGGCAUCUCUGAGAGAAAUGCC [G7A A94U], the self-cleavage is 0.

As for UACGUUGGUGGUUUUCCCCUGAUAGUGCUAAGGGGGCCUGGAAGUUUGGACUGGGCAGAGCUCAACACAGCGUGGCAAAGUGGCUGUGGCUAGACUGCCUCUCAGGAUUCCUCGUCACUCAGCAGGGCAUCUCUGAGAGAAAUGCC [A6U U104A], the self-cleavage is 1.16.

Regarding UACGUUGGUGGUUUUCCCCUGAUAGUGCUAAGGGGGCCUGGAAGUUUGGACUGGGCAGAGCUCAACACAGCGUGGCAAAGUGGCUGUGGCUAGACUGCCUCUCGGGAUUCCUCGUCACUCAGCAGGGCAUCUCUGAGAGAAAUGCC [A6U U104G], the self-cleavage amounted to 0.48.

Regarding UACGUUGGUGGUUUUCCCCUGAUAGUGCUAAGGGGGCCUGGAAGUUUGGACUGGGCAGAGCUCAACACAGCGUGGCAAAGUGGCUGUGGCUAGACCGCCUCUCUGGAUUCCUCGUCACUCAGCAGGGCAUCUCUGAGAGAAAUGCC [A6U U96C], the self-cleavage was 0.09.

On to UACGUUGGUGGUUUUCCCCCGAUAGUGCUAAGGGGGCCUGGAAGUUUGGACUGGGCAGAGCUCAACACAGCGUGGCAAAGUGGCUGUGGCUAGACUGCCUCUCUGGAUUCCUCGUCACUCAGCAGGGCAUCUCUGAGAGAAAUGCC [A6U U20C], for which the self-cleavage is 1.19.

As to UACGUUGGUGGUUUUCCCCAGAUAGUGCUAAGGGGGCCUGGAAGUUUGGACUGGGCAGAGCUCAACACAGCGUGGCAAAGUGGCUGUGGCUAGACUGCCUCUCUGGAUUCCUCGUCACUCAGCAGGGCAUCUCUGAGAGAAAUGCC [A6U U20A], the self-cleavage is 1.21.

Regarding UACGUUGGUGGUUUUCCCCUGAUAGUGCUAAGGGGGCCUGGAAGUCUGGACUGGGCAGAGCUCAACACAGCGUGGCAAAGUGGCUGUGGCUAGACUGCCUCUCUGGAUUCCUCGUCACUCAGCAGGGCAUCUCUGAGAGAAAUGCC [A6U U46C], the self-cleavage was 0.14.

Take UACGUUGGUGGUUUUCCCCUGAUAGUGCUAAGGGGGCCUGGAAGCUUGGACUGGGCAGAGCUCAACACAGCGUGGCAAAGUGGCUGUGGCUAGACUGCCUCUCUGGAUUCCUCGUCACUCAGCAGGGCAUCUCUGAGAGAAAUGCC [A6U U45C]: the self-cleavage is 1.35.

On to UACGUUGGUGGUUUUCCCCUGAUAGUGCUAAGGGGGCCUGGAAGUUUGGACUGGGCAGAGCUCAACACAGCGAGGCAAAGUGGCUGUGGCUAGACUGCCUCUCUGGAUUCCUCGUCACUCAGCAGGGCAUCUCUGAGAGAAAUGCC [A6U U73A], for which the self-cleavage came out at 1.54.

Take UACGUUGGUGGUUUUCCCCUGAUAGUGCUAAGGGGGCCUGGAAGUUUGGACUGGGCAGAGCUCAACACAGCGUGGCAAAGUGGCUGUGGCUAGACUGCCUCUCUGGAUUCCUCGUCACUCAGCAGGGCAUCUCUGAGAGAAAGGCC [A6U U143G]: the self-cleavage is 1.12.

As to UACGUUGGUGGUUUUCCCCUGAUAGUGCUAAGGGGGCCAGGAAGUUUGGACUGGGCAGAGCUCAACACAGCGUGGCAAAGUGGCUGUGGCUAGACUGCCUCUCUGGAUUCCUCGUCACUCAGCAGGGCAUCUCUGAGAGAAAUGCC [A6U U39A], the self-cleavage was 1.16.

Regarding UACGUUGGUGGUUUUCCCCUGAUAGUGCUAAGGGGGCCCGGAAGUUUGGACUGGGCAGAGCUCAACACAGCGUGGCAAAGUGGCUGUGGCUAGACUGCCUCUCUGGAUUCCUCGUCACUCAGCAGGGCAUCUCUGAGAGAAAUGCC [A6U U39C], the self-cleavage came out at 0.84.

Take UACGUUGGUGGUUUUCCCCUGAUAGUGCUAAGGGGGCCUGGAAGUUUGGACAGGGCAGAGCUCAACACAGCGUGGCAAAGUGGCUGUGGCUAGACUGCCUCUCUGGAUUCCUCGUCACUCAGCAGGGCAUCUCUGAGAGAAAUGCC [A6U U52A]: the self-cleavage amounted to 1.

As for UACGUUGGUGGUUUUCCCCUGAUAGUGCUAAGGGGGCCUGGAAGUUUGGACUGGGCAGAGCUCAACACAGCGUGUCAAAGUGGCUGUGGCUAGACUGCCUCUCUGGAUUCCUCGUCACUCAGCAGGGCAUCUCUGAGAGAAAUGCC [A6U G75U], the self-cleavage stood at 0.53.

Take UACGUUGGUGGUUUUCCCCUGAUAGUGCUAAGGUGGCCUGGAAGUUUGGACUGGGCAGAGCUCAACACAGCGUGGCAAAGUGGCUGUGGCUAGACUGCCUCUCUGGAUUCCUCGUCACUCAGCAGGGCAUCUCUGAGAGAAAUGCC [A6U G34U]: the self-cleavage was determined as 1.02.

With UACGUAAGUGGUUUUCCCCUGGUAGUGCUAAGGGGGCCUGGAAGUUUGGACUGGGCAGAGCUCAACACAGCGUGGCAAAGUGGCUGUGGCUAGACUGCCUCUCUGGAUUCCUCGUCACUCAGCAGGGCAUCUCUGAGAGAAAUGCC [G7A A22G], the self-cleavage was 1.36.

Take UACGUAAGUGGUUUUCCCCUGUUAGUGCUAAGGGGGCCUGGAAGUUUGGACUGGGCAGAGCUCAACACAGCGUGGCAAAGUGGCUGUGGCUAGACUGCCUCUCUGGAUUCCUCGUCACUCAGCAGGGCAUCUCUGAGAGAAAUGCC [G7A A22U]: the self-cleavage was determined as 0.73.

In the case of UACGUAAGUGGUUUUCCCCUGAUAGUGCUAAGGGGGCCUGGAAGUUUGGACUGGGCAGAGCUCAACACAGCGUGGCAAGGUGGCUGUGGCUAGACUGCCUCUCUGGAUUCCUCGUCACUCAGCAGGGCAUCUCUGAGAGAAAUGCC [G7A A79G], the self-cleavage was found to be 0.61.

With UACGUUGGUGGUUUUCCCCUGAUAGUGCUAAGGGGGCCUGGAAGUUUGGACUGGGCAGAGCUCAACACAGCGUGGCAAAGUGGCUGUGGCUAGACUACCUCUCUGGAUUCCUCGUCACUCAGCAGGGCAUCUCUGAGAGAAAUGCC [A6U G97A], the self-cleavage was determined as 0.12.

With UACGUAAGUGGUUUUCCCCUGAUAGUGCUAAGGGGGCCUGGAAGUUUGGACUGGGCAGAGCUCAACACAGCGUGGCAGAGUGGCUGUGGCUAGACUGCCUCUCUGGAUUCCUCGUCACUCAGCAGGGCAUCUCUGAGAGAAAUGCC [G7A A78G], the self-cleavage came out at 1.12.

For the variant UACGUUGGUGGUUUACCCCUGAUAGUGCUAAGGGGGCCUGGAAGUUUGGACUGGGCAGAGCUCAACACAGCGUGGCAAAGUGGCUGUGGCUAGACUGCCUCUCUGGAUUCCUCGUCACUCAGCAGGGCAUCUCUGAGAGAAAUGCC [A6U U15A], the self-cleavage is 0.63.

In the case of UACGUUGGUGGUUUCCCCCUGAUAGUGCUAAGGGGGCCUGGAAGUUUGGACUGGGCAGAGCUCAACACAGCGUGGCAAAGUGGCUGUGGCUAGACUGCCUCUCUGGAUUCCUCGUCACUCAGCAGGGCAUCUCUGAGAGAAAUGCC [A6U U15C], the self-cleavage was 1.09.

On to UACGUAAGUGGUUUUCCCCUGAUAGUGCUGAGGGGGCCUGGAAGUUUGGACUGGGCAGAGCUCAACACAGCGUGGCAAAGUGGCUGUGGCUAGACUGCCUCUCUGGAUUCCUCGUCACUCAGCAGGGCAUCUCUGAGAGAAAUGCC [G7A A30G], for which the self-cleavage was 0.84.

UACGUUGGUGGUUUUCCCCUGAUAGUGCUAAGGGGGCCUGGAAGUUUGGACUGGGCAGAGCUCAACACAGCGUGGCAAAGUGGCUGUGGCCAGACUGCCUCUCUGGAUUCCUCGUCACUCAGCAGGGCAUCUCUGAGAGAAAUGCC [A6U U91C]: the self-cleavage amounted to 0.52.

For UACGUUGGUGGUUCUCCCCUGAUAGUGCUAAGGGGGCCUGGAAGUUUGGACUGGGCAGAGCUCAACACAGCGUGGCAAAGUGGCUGUGGCUAGACUGCCUCUCUGGAUUCCUCGUCACUCAGCAGGGCAUCUCUGAGAGAAAUGCC [A6U U14C], the self-cleavage was determined as 0.92.

UACGUUGGUGGUUUUCCCCUGAUAGUGCUAAGGGGGCCUGGAAGUUUGGACUGGGCAGAGCUCAACACAGCGUGGCAAAGUGGCUGUGGCUAGACUGCCUCUCUGGAUUCCUCGUCACUCAGCAGGGCAUCUUUGAGAGAAAUGCC [A6U C133U]: the self-cleavage was 1.04.

Turning to UACGUUGGUGGCUUUCCCCUGAUAGUGCUAAGGGGGCCUGGAAGUUUGGACUGGGCAGAGCUCAACACAGCGUGGCAAAGUGGCUGUGGCUAGACUGCCUCUCUGGAUUCCUCGUCACUCAGCAGGGCAUCUCUGAGAGAAAUGCC [A6U U12C], the self-cleavage stood at 1.43.

As to UACGUUGGUGGUUUUCCCCUGAUAGUGCUAAGGGGGCCUGGAAGUUUGGACUGGGCAGAGCUCAACACAGCGUGGCAAAGUGGCUGUGGCUAGACUGCCCCUCUGGAUUCCUCGUCACUCAGCAGGGCAUCUCUGAGAGAAAUGCC [A6U U100C], the self-cleavage was 0.76.

For the variant UACGUUGGUGGUUUUCCCCUGAUAGUGCUAAGGGGGCCUGGAAGUUUGGACUGGGCAGAGCUCAACACAGCGUGGCAAAGUGGCUGUGGCUAGACUGCCACUCUGGAUUCCUCGUCACUCAGCAGGGCAUCUCUGAGAGAAAUGCC [A6U U100A], the self-cleavage turned out to be 0.52.

For UACGUUGGUGGUUUUCCCCUGAUAGUGCUAAGGGGGCCUGGAAGUUUGGACUGGGCAGAGCUCAACACAGCGUGGCAAAGUGGCUGUGGCUAGACUGCCUCUCUGGAUUCCUCGUCACACAGCAGGGCAUCUCUGAGAGAAAUGCC [A6U U119A], the self-cleavage was found to be 1.74.

UACGUUGGUGGUUUUCCCCUGAUAGUGCUAAGGGGGCCUGGAAGUUUGGACUGGGCAGAGCUCAACACAGCGUGGCAAAGUGGCUGUGGCUAGACUGCCUCUCUGGAUUCCUCGUCACUCAGCAGGGCAUCUCUGAGAGAAAUGUC [A6U C145U]: the self-cleavage is 0.48.

Regarding UACGUUGGUGGUUUUCCCCUGAUAGUGCUAAGGGGGCCUGGAAGUUUGGACUGGGCAGAGCUCAACACAGCGUGGCAAAGUGGCUGCGGCUAGACUGCCUCUCUGGAUUCCUCGUCACUCAGCAGGGCAUCUCUGAGAGAAAUGCC [A6U U87C], the self-cleavage is 0.16.

In the case of UACGUUGGUGGUUUUCCCCUGAUAGUGCUAAGGGGGCCUGGAAGUUUGGACUGGGCAGAGCUCAACACAGCGUGGCAAAGUGGCUGAGGCUAGACUGCCUCUCUGGAUUCCUCGUCACUCAGCAGGGCAUCUCUGAGAGAAAUGCC [A6U U87A], the self-cleavage stood at 0.15.

In the case of UACGUUGGUGGUUUUCCCCUGAUAGUGCUAAGGGGGCCUGGAAGUUUGGACUGGGCAGAGCUCAACACAGCGUGGCAAAGUGGCUGUGGCUAGACUGCCUCUCUGGAUUCCUCGUCACUCAGCAGGACAUCUCUGAGAGAAAUGCC [A6U G127A], the self-cleavage is 0.59.

As to UACGUUGGUGGUUUUCCCCUGAAAGUGCUAAGGGGGCCUGGAAGUUUGGACUGGGCAGAGCUCAACACAGCGUGGCAAAGUGGCUGUGGCUAGACUGCCUCUCUGGAUUCCUCGUCACUCAGCAGGGCAUCUCUGAGAGAAAUGCC [A6U U23A], the self-cleavage is 0.26.

On to UACGUUGGUGGUUUUCCCCUGACAGUGCUAAGGGGGCCUGGAAGUUUGGACUGGGCAGAGCUCAACACAGCGUGGCAAAGUGGCUGUGGCUAGACUGCCUCUCUGGAUUCCUCGUCACUCAGCAGGGCAUCUCUGAGAGAAAUGCC [A6U U23C], for which the self-cleavage was determined as 1.31.

For the variant UACGUAAGUGGUUUUCCCCUGAUAGUGCUAAGGGGGCCUGGAAGUUUGGACUGGGCUGAGCUCAACACAGCGUGGCAAAGUGGCUGUGGCUAGACUGCCUCUCUGGAUUCCUCGUCACUCAGCAGGGCAUCUCUGAGAGAAAUGCC [G7A A57U], the self-cleavage is 0.07.
